Chemical shift change of heme methyls (Δδ) data for 4 substances are collected here from paper PMC10954620.

This experiment has as its target OmcS nanowires (cytochrome OmcS filaments of Geobacter sulfurreducens) (G. sulfurreducens (endogenous in strain ΔomcZ)) (UniProt Q74A86). Kind of experiment: NMR titration; 1D 1H NMR chemical shift perturbation of the heme methyl signals of oxidized PpcA-E with and without OmcS nanowires, single point at 1:4 heme ratio periplasmic cytochrome:OmcS; 50 mM potassium phosphate with KCl (ionic strength 150 mM), pH 7, 2H2O; 298 K, 600 MHz.
Chain of UniProt Q74A86 (Q74A86 26-432, stated change not applied): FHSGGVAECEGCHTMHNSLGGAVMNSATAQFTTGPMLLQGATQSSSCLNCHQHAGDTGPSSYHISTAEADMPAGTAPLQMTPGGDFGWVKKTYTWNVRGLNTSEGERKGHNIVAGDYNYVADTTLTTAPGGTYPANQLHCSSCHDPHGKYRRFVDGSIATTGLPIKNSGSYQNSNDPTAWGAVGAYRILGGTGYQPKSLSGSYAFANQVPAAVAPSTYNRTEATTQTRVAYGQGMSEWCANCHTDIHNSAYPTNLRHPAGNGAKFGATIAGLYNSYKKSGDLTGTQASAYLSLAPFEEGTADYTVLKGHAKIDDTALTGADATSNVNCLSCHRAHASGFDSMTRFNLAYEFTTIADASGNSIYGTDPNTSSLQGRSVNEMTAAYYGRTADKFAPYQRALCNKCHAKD
Turning to “Periplasmic triheme cytochrome PpcA (natural protein)”, the chemical shift change of heme methyls (Δδ) is < 0.04 ppm.
Regarding “Periplasmic triheme cytochrome PpcB (natural protein)”, the chemical shift change of heme methyls (Δδ) was < 0.04 ppm.
Under “Periplasmic triheme cytochrome PpcD (natural protein)” stands < 0.04 ppm; under “Periplasmic triheme cytochrome PpcE (natural protein)”, < 0.04 ppm.
